Substitutions are numbered along the chain they refer to. Numbers in names are those of the source.

The source of these data is patent US20240075137A1 (COMPUGEN, published 2024).

Assay [1] concerns the target T1, human PVRIG on cells (human, UniProt Q6DKI7 1-326).
T1 construct: whole, on cells; over-expressed on HEK cells or endogenous on Jurkat and CD8 T cells; also called hPVRIG; HEK hPVRIG cells
T1 sequence (looked up): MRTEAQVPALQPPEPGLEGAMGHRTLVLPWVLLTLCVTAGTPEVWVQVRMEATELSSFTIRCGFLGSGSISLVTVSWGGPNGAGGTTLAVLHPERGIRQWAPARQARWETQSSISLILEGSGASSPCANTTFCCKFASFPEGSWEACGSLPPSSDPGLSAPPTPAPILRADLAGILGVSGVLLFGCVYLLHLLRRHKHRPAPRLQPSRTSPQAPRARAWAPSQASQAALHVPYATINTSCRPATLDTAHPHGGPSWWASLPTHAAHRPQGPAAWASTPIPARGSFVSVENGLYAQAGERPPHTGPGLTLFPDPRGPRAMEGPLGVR
In words: FACS on Jurkat cells; column head 'Kd', unit nM from legend paragraph 75.

Assay [2] deals with T1, human PVRIG on cells. Description: FACS on HEK hPVRIG cells; column head 'Kd', unit nM from legend paragraph 75.
The target in assay [3] is T2, cyno TIGIT on cells (cynomolgus macaque).
T2 construct: whole, on cells; also called Expi293 cyno TIGIT over-expressing cells
In words: FACS titration on cyno TIGIT OE Expi293 cells, binding site concentration; ± 95% CI; 'Fit: Good/Excellent'.
Description: AF647-labeled goat anti-human F(ab′) (Jackson Immunoresearch) was added to the cells to detect binding of anti-TIGIT antibodies. The gMFI of the anti-TIGIT antibodies bound to the cyno TIGIT over-expressing Expi293 cells (black line), and the parental Expi293 cells (grey line) are shown.

Assay [4] has as its target T3, human TIGIT on cells (human, UniProt Q495A1 22-141).
T3 construct: also called Expi293 human TIGIT over-expressing cells
T3 sequence: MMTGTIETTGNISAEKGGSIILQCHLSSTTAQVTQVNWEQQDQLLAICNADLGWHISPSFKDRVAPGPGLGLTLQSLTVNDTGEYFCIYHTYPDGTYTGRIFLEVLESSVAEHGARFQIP
In words: FACS blocking of human PVR-m2aFc binding to human TIGIT OE Expi293 cells; binding site concentration; n=1.

Assay [5] deals with T3, human TIGIT on cells. Description: FACS blocking of human PVR-m2aFc binding to human TIGIT OE Expi293 cells; binding site concentration; n=2.
In a further assay the target is T4, Cyno TIGIT-His.
T4 construct: also called cyno TIGIT monomer (prepared in-house); C-terminal HIS-tagged cyno TIGIT ECD recombinant protein
T4 sequence (ECD with C-terminal His tag, as listed by the source): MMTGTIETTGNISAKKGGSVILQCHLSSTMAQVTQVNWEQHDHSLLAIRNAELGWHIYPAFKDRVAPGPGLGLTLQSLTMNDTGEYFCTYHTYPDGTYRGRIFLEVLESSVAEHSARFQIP
Description: SPR (ProteOn), Cyno TIGIT-His.

Assay [6] concerns the target T3, human TIGIT on cells. Description: FACS titration on human TIGIT OE Expi293 cells, binding site concentration; ± 95% CI; 'Fit: Excellent'.
Description: AF647-labeled goat anti-human F(ab′) (Jackson Immunoresearch) was added to the cells to detect binding of anti-TIGIT antibodies.
Assay [7] addresses T3, human TIGIT on cells. In words: FACS titration of AF647-labelled mAb on human effector memory CD8+ T cells, Donor 321.
In assay [8] the target is T5, human TIGIT ECD with C-terminal polyhistidine tag (human, UniProt Q495A1 22-141).
T5 construct: in-house or Sino Biological; also called hTIGIT-HIS; human TIGIT-HIS
T5 sequence: T3 sequence
In words: SPR (ProteOn), Human TIGIT-His.

In assay [9] the target is T6, Mouse TIGIT-His (mouse, UniProt P86176).
T6 construct: also called mouse TIGIT monomer (prepared in-house)
T6 sequence (soluble monomer with His tag, looked up): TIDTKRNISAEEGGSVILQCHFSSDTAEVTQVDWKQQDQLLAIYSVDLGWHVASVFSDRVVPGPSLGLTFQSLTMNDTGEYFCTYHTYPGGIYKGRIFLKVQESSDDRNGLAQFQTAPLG
In words: SPR (ProteOn), Mouse TIGIT-His.

In assay [10] the target is T3, human TIGIT on cells. In words: FACS titration of AF647-labelled mAb on human effector memory CD8+ T cells, Donor 334.
Assay [11] deals with T3, human TIGIT on cells. In words: FACS titration of AF647-labelled mAb on human effector memory CD8+ T cells, Donor 322.
Assay [12] deals with T5, human TIGIT ECD with C-terminal …. In words: KinExA equilibrium, His-tagged human TIGIT, n = 1. For orientation: In KinExA the mixture passes briefly over coated beads that capture the unbound partner.
Description: KinExA equilibrium experiments were performed using a KinExA 3200 instrument (Sapidyne Instruments, Boise, ID, USA) at 22° C. Recombinant His-tagged human TIGIT was obtained from Sino Biologicals (Beijing, China) and reconstituted into 1×PBS. All antigen and antibody samples for KinExA analyses were prepared in degassed PBST buffer (PBS with 0.05% tween 20) with 100 ug/mL filtered BSA and 0.02% sodium azide. […] For each KinExA experiment, ˜20 lag of human TIGIT was diluted into 1 mL of 50 mM sodium carbonate, pH 9.2 which was added directly to 50 mg of azlactone beads (Ultralink Support, Thermo Scientific, Rockford, IL, USA) and rocked overnight at 4° C. After rocking, the beads were rinsed once with 1 M Tris buffer, pH 8.5, containing 10 mg/mL BSA and rocked for one hour at room temperature in the same buffer. Coupled beads were added to the bead reservoir in the KinExA instrument and diluted to ˜30 mL with 1×HBS-N (0.01 M Hepes, 0.15M NaCl, GE Healthcare) containing 0.02% sodium azide which was also the running buffer for the KinExA instrument. All antigen-coupled beads were used immediately after preparation.
The volume flowed through the bead pack for each equilibrated sample for all experiments ranged from 4 mL to 11 mL at a flow rate of 0.25 mL/min.
Assay [13] deals with T3, human TIGIT on cells. Description: flow cytometry of fab; MFI on human TIGIT over-expressing Expi293 / MFI on parental Expi293. (A flow cytometer gives signals particle by particle.)
In assay [14] the target is T5, human TIGIT ECD with C-terminal …. In words: affinity maturation screen of fabs, SPR on hTIGIT-HIS.
Assay [15] concerns the target T2, cyno TIGIT on cells. Description: flow cytometry of fab; MFI on cyno TIGIT over-expressing Expi293 / MFI on parental Expi293.
Assay [16] deals with T2, cyno TIGIT on cells. Description: FACS titration of AF647-labelled mAb on cyno effector memory CD8+ T cells, Cyno Donor 3; isotype gMFI subtracted.
Assay [17] concerns the target T2, cyno TIGIT on cells. In words: FACS titration of AF647-labelled mAb on cyno effector memory CD8+ T cells, Cyno Donor 1; isotype gMFI subtracted.
The target of assay [18] is T2, cyno TIGIT on cells. Description: FACS KD on Expi293 cyno TIGIT over-expressing cells; ± 95% CI of the fit.
Assay [19] addresses T3, human TIGIT on cells. In words: FACS blocking: Expi293 human TIGIT cells pre-incubated with mAb, then human PVR-m2aFc; lower gMFI = more blocking.
In assay [20] the target is T3, human TIGIT on cells. In words: FACS KD on Expi293 human TIGIT over-expressing cells; ± 95% CI of the fit.
In assay [21] the target is T6, Mouse TIGIT-His. In words: SPR (ProteOn), mAb captured, mouse TIGIT monomer injected.
Description: (§1) All experiments were performed using a ProteOn XPR 36 instrument at 22° C. First, high density capture surfaces were prepared with goat anti human Fc polyclonal antibody (Thermo #H10500) and rabbit anti mouse antibodies (GE Healthcare #BR100838), respectively, immobilized over all vertical capture lanes and horizontal interspots on separate GLC chips using standard amine coupling. Typical immobilization levels for the anti-human capture pAb and the anti-mouse capture antibody for each GLC chip were around 5000 RU. Human TIGIT was obtained from Sino Biologicals while mouse TIGIT monomer and cyno TIGIT monomer were prepared in-house.
(§2) Each mAb was diluted to ˜0.5 μg/mL in running buffer which was 1×PBST with filtered BSA added to a final concentration of 100 μg/mL. For each “single-shot kinetics” cycle on the ProteOn instrument, a different mAb was captured over one of the six unique vertical capture lanes for approximately 1.5-2.5 minutes. After switching the buffer flow of the ProteOn to the horizontal direction, capture surfaces were stabilized for approximately 15-20 minutes. […] An identical buffer injection preceded each series of injected antigen for double-referencing. […] The sensorgrams of TIGIT antigen injected over captured mAbs were processed using a ProteOn version of Scrubber and were fit to a 1:1 kinetic binding model including a term for mass transport.
In assay [22] the target is T5, human TIGIT ECD with C-terminal …. In words: SPR (ProteOn), mAb captured, human TIGIT injected.
Description: as §1, §2

B1: CPA.7.021 (antibody, V domains shown)
VH: EVQLVESGGGVVKPGGSLRLSCAASGFTFGTSSMNWVRQAPGKGLEWVAVISFDGTEIHYADSVKGRFTISRDNSKSTVFLQMNSLRPDDTALYYCAKGSGNIYFYSGMDVWGQGTTVTVSS
VL: DIQMTQSPSTLSASVGDRVTITCRAGQSISGWLAWFQQKPGKAPNLLIYETSTLESGVPSRFSGSGSGTEYTLTISSLQPDDFATYYCQQYYSYPLTFGQGTKVEIKR
As usually defined, the Kd is the constant that tells how readily two partners part at equilibrium. With B1, the Kd with human PVRIG on cells [1] came out at 3.18 nM; in the assay with human PVRIG on cells [2], 2.94 nM.

B2: CHA.9.547.7.H4(S241P) (antibody, human IgG4 S228P, kappa, V domains shown)
VH: EVQLVESGGGLVQPGGSLRLSCAASGFTFSSYIMSWVRQAPGKGLEWVATISGGGTNTYYADSVKGRFTISRDNSKNTLYLQMNSLRAEDTAVYYCAKWLLSYYAMDYWGQGTLVTVSS
VL: DIQMTQSPSSLSASVGDRVTITCRASQNINVWLTWYQQKPGKAPKLLIYKASKSHTGVPSRFSGSGSGTDFTLTISSLQPEDFATYYCQQGQSYPYTFGQGTKLEIKR
notes: humanized hybridoma anti-TIGIT antibody, human IgG4
For orientation: IC50 means the midpoint of a concentration-inhibition curve. A high value points to weaker potency. Take B2: the Kd came out at 1.54 nM in the assay with cyno TIGIT on cells [3]; 0.456 nM with Cyno TIGIT-His; 0.82 nM with human TIGIT on cells [6]; 1.8 nM with human TIGIT on cells [7]; 0.035 nM in assay [8]; 1.8 nM with human TIGIT on cells [10]. Binding in the assay with human TIGIT on cells [11] was characterised by a dissociation constant (Kd) of 2.1 nM. For the same molecule, the IC50 in the assay with human TIGIT on cells [4] worked out at 0.21 nM; with human TIGIT on cells [5], 0.15 nM. In the assay with Mouse TIGIT-His [9], the binding result is “no binding (tested: not printed)”.

B3: CHA.9.547.13.H4(S241P) (antibody, human IgG4, V domains shown)
VH: B2 VH
VL: DIQMTQSPSSLSASVGDRITITCRASQNINVWLSWYQQKPGKAPKLLIYKASKSHTGVPSRFSGSGSGTDFTLTISSLQPEDFATYYCQQGQSYPYTFGQGTKLEIK
notes: humanized hybridoma antibody, human IgG4 (S241P)
As for B3, the Kd with cyno TIGIT on cells [3] was determined as 1.67 nM; with human TIGIT on cells [6], 0.71 nM; in the assay with human TIGIT on cells [7], 2 nM; in the assay with human TIGIT on cells [10], 1.2 nM; in assay [12] it was 0.0188 nM; in the assay with human TIGIT on cells [11], 1.9 nM. The results for the concentration for half-maximal inhibition (IC50) in the assay with human TIGIT on cells [4] and with human TIGIT on cells [5] were 0.26 nM and 0.21 nM, respectively.

B4: CPA.9.083 (fab) (Fab, V domains shown)
VH: EVQLVETGGGLIQPGRSLRLSCAASGFTFSSYAMHWVRQAPGKGLEWVAVISYDGTPVYYADSVKGRFTISRDNSKNTLYLQMNSLRAEDTAVYYCARDPLPLHYYGMDVWGQGTTVTVSS
VL: QSALTQPRSASGNPGQRVTISCSGSSSNMGRRPVNWYQQIPGTAPKLLIYSQNQRPSGVPDRFSGSQSGTSASLTISGLQSEDEAEYFCAVWDGDRRSLQLGGGTQLAVLG
notes: variant of CPA.9.027 screened as fab
Take B4: in the assay with human TIGIT on cells [13], the “MFIr (OE/Par) hTIGIT” value stood at 170. In [14], the “fold improvement in binding over CPA.9.027” value (“fold improvement in binding” below) is at least 25 fold. Besides, in the assay with cyno TIGIT on cells [15], the “MFIr (OE/Par) cTIGIT” value is 97.

B5: CPA.9.083.H4(S241P) (antibody, human IgG4, V domains shown)
VH: B4 VH
VL: B4 VL
B5: the Kd amounted to 0.49 nM in the assay with cyno TIGIT on cells [3]; 0.39 nM with human TIGIT on cells [6]; 0.88 nM with cyno TIGIT on cells [16]; 0.13 nM with human TIGIT on cells [7]; 0.0017 nM in [8]; 0.434 nM with Mouse TIGIT-His [9]. In addition, the Kd with human TIGIT on cells [10] amounted to 0.13 nM; in assay [12], 0.000694 nM; with human TIGIT on cells [11], 0.12 nM; with cyno TIGIT on cells [17], 0.82 nM. The IC50 with human TIGIT on cells [4] came to 0.47 nM; in the assay with human TIGIT on cells [5], 0.22 nM. The binding result with Cyno TIGIT-His was “binds”.

B6: CPA.9.089 (fab) (Fab, V domains shown)
VH: B4 VH with G55R
VL: QSALTQPRSASGNPGQRVTISCSGSSSNMGRRPVNWYQQIPGTAPKLLIYSQNQRPSGVPDRFSGSQSGTSASLTISGLQSEDEAEYFCATWDDSLPRLNFGGGTKLAVL
notes: as for B4
Regarding B6, in the assay with human TIGIT on cells [13], the “MFIr (OE/Par) hTIGIT” value was found to be 110. Besides, in assay [14], the “fold improvement in binding” value was at least 25 fold. Also, the “MFIr (OE/Par) cTIGIT” value with cyno TIGIT on cells [15] is 52.

B7: CPA.9.027 hIgG4 (antibody, V domains shown)
VH: B4 VH with T56S, P57N, V58K
VL: B4 VL with G94D, D95S, R96L, R97S
notes: phage-derived anti-TIGIT, human IgG4; also called CPA.9.027-H4
As for B7, the Kd with cyno TIGIT on cells [18] turned out to be 2.25 nM; with human TIGIT on cells [20], 0.17 nM; with Mouse TIGIT-His [21] it was 80 nM; in assay [22], 0.13 nM. Moreover, the “gMFI of bound PVR-m2aFc at 266 pM mAb” value with human TIGIT on cells [19] turned out to be 529. Moreover, the “gMFI of bound PVR-m2aFc at 1.3 nM mAb” value with human TIGIT on cells [19] worked out at 253. Moreover, the “gMFI of bound PVR-m2aFc at 6.7 nM mAb” value with human TIGIT on cells [19] worked out at 208.

B8: CPA.9.093 (fab) (Fab, V domains shown)
VH: B4 VH with D54E, T56D, P57R, V58K
VL: B6 VL with L96T, R98H, L99G, N100V
notes: as for B4
Turning to B8, the “MFIr (OE/Par) hTIGIT” value in the assay with human TIGIT on cells [13] was found to be 80. Also, the “fold improvement in binding” value in assay [14] is at least 25 fold. Moreover, the “MFIr (OE/Par) cTIGIT” value in the assay with cyno TIGIT on cells [15] is 60.

B9: CPA.9.086 (fab) (Fab, V domains shown)
VH: B4 VH with D54A, T56E, P57V, V58K
VL: B4 VL with G94D, D95I, R96G, S98V
notes: as for B4
For B9, the “MFIr (OE/Par) hTIGIT” value with human TIGIT on cells [13] worked out at 36. In addition, the “fold improvement in binding” value in assay [14] was at least 25 fold. In addition, the “MFIr (OE/Par) cTIGIT” value with cyno TIGIT on cells [15] stood at 34.
